Results as given in article PMC8313811 (Current Research in Structural Biology, 2021).

B1: M. tuberculosis EspB2-287 (domain or fragment)
chain: TQSQTVTVDQQEILNRANEVEAPMADPPTDVPITPCELTAAKNAAQQLVLSADNMREYLAAGAKERQRLATSLRNAAKAYGEVDEEAATALDNDGEGTVQAESAGAVGGDSSAELTDTPRVATAGEPNFMDLKEAARKLETGDQGASLAHFADGWNTFNLTLQGDVKRFRGFDNWEGDAATACEASLDQQRQWILHMAKLSAAMAKQAQYVAQLHVWARREHPTYEDIVGLERLYAENPSARDQILPVYAEYQQRSEKVLTEYNNKAALEPVNPPKPPPAIKIDPP
B2: M. marinum EspB2-286 (domain or fragment)
chain: SQPQTVTVDQQEILNRADEVEAPMATPPTDVPQAPSGLTAANNAAEQLAVSADNVRLYLQAGERERQRLATSLRNAAAAYGEVEDESATALDNDGNGEVDAQSAGGAGAGQTESLEETPKVAAAGESDFTDLKTAATKLESGDQGTSMVNFADGWNNFNLSLQRDIKRFRIFENWEGDAATACEASMDQQKEWILHMAKLSASLAKQANFMAQLQLWARRGHPTLADIVELERLAKDPDYQEQAIKLYAEYQETSEKVLSEYNTKADLEPVNPPKPPAAIKIDPP
B3: M. tuberculosis EspB (residues 2-358), mature form (domain or fragment)
chain: TQSQTVTVDQQEILNRANEVEAPMADPPTDVPITPCELTAAKNAAQQLVLSADNMREYLAAGAKERQRLATSLRNAAKAYGEVDEEAATALDNDGEGTVQAESAGAVGGDSSAELTDTPRVATAGEPNFMDLKEAARKLETGDQGASLAHFADGWNTFNLTLQGDVKRFRGFDNWEGDAATACEASLDQQRQWILHMAKLSAAMAKQAQYVAQLHVWARREHPTYEDIVGLERLYAENPSARDQILPVYAEYQQRSEKVLTEYNNKAALEPVNPPKPPPAIKIDPPPPPQEQGLIPGFLMPPSDGSGVTPGTGMPAAPMVPPTGSPGGGLPADTAAQLTSAGREAAALSGDVAVKAA

Columns and labels:
cryo-EM structure = target: the molecule itself; assay: cryo-EM structure
SEC = target: the molecule itself; assay: SEC

Protein | stoichiometry N (cryo-EM structure) | binding result (SEC)
B1 | 7 | –
B2 | 7 | –
B3 | – | binds
